Data: patent publication US20250025478

Sequence of 3×-FLAG-RNF213 (chain, as listed by the source): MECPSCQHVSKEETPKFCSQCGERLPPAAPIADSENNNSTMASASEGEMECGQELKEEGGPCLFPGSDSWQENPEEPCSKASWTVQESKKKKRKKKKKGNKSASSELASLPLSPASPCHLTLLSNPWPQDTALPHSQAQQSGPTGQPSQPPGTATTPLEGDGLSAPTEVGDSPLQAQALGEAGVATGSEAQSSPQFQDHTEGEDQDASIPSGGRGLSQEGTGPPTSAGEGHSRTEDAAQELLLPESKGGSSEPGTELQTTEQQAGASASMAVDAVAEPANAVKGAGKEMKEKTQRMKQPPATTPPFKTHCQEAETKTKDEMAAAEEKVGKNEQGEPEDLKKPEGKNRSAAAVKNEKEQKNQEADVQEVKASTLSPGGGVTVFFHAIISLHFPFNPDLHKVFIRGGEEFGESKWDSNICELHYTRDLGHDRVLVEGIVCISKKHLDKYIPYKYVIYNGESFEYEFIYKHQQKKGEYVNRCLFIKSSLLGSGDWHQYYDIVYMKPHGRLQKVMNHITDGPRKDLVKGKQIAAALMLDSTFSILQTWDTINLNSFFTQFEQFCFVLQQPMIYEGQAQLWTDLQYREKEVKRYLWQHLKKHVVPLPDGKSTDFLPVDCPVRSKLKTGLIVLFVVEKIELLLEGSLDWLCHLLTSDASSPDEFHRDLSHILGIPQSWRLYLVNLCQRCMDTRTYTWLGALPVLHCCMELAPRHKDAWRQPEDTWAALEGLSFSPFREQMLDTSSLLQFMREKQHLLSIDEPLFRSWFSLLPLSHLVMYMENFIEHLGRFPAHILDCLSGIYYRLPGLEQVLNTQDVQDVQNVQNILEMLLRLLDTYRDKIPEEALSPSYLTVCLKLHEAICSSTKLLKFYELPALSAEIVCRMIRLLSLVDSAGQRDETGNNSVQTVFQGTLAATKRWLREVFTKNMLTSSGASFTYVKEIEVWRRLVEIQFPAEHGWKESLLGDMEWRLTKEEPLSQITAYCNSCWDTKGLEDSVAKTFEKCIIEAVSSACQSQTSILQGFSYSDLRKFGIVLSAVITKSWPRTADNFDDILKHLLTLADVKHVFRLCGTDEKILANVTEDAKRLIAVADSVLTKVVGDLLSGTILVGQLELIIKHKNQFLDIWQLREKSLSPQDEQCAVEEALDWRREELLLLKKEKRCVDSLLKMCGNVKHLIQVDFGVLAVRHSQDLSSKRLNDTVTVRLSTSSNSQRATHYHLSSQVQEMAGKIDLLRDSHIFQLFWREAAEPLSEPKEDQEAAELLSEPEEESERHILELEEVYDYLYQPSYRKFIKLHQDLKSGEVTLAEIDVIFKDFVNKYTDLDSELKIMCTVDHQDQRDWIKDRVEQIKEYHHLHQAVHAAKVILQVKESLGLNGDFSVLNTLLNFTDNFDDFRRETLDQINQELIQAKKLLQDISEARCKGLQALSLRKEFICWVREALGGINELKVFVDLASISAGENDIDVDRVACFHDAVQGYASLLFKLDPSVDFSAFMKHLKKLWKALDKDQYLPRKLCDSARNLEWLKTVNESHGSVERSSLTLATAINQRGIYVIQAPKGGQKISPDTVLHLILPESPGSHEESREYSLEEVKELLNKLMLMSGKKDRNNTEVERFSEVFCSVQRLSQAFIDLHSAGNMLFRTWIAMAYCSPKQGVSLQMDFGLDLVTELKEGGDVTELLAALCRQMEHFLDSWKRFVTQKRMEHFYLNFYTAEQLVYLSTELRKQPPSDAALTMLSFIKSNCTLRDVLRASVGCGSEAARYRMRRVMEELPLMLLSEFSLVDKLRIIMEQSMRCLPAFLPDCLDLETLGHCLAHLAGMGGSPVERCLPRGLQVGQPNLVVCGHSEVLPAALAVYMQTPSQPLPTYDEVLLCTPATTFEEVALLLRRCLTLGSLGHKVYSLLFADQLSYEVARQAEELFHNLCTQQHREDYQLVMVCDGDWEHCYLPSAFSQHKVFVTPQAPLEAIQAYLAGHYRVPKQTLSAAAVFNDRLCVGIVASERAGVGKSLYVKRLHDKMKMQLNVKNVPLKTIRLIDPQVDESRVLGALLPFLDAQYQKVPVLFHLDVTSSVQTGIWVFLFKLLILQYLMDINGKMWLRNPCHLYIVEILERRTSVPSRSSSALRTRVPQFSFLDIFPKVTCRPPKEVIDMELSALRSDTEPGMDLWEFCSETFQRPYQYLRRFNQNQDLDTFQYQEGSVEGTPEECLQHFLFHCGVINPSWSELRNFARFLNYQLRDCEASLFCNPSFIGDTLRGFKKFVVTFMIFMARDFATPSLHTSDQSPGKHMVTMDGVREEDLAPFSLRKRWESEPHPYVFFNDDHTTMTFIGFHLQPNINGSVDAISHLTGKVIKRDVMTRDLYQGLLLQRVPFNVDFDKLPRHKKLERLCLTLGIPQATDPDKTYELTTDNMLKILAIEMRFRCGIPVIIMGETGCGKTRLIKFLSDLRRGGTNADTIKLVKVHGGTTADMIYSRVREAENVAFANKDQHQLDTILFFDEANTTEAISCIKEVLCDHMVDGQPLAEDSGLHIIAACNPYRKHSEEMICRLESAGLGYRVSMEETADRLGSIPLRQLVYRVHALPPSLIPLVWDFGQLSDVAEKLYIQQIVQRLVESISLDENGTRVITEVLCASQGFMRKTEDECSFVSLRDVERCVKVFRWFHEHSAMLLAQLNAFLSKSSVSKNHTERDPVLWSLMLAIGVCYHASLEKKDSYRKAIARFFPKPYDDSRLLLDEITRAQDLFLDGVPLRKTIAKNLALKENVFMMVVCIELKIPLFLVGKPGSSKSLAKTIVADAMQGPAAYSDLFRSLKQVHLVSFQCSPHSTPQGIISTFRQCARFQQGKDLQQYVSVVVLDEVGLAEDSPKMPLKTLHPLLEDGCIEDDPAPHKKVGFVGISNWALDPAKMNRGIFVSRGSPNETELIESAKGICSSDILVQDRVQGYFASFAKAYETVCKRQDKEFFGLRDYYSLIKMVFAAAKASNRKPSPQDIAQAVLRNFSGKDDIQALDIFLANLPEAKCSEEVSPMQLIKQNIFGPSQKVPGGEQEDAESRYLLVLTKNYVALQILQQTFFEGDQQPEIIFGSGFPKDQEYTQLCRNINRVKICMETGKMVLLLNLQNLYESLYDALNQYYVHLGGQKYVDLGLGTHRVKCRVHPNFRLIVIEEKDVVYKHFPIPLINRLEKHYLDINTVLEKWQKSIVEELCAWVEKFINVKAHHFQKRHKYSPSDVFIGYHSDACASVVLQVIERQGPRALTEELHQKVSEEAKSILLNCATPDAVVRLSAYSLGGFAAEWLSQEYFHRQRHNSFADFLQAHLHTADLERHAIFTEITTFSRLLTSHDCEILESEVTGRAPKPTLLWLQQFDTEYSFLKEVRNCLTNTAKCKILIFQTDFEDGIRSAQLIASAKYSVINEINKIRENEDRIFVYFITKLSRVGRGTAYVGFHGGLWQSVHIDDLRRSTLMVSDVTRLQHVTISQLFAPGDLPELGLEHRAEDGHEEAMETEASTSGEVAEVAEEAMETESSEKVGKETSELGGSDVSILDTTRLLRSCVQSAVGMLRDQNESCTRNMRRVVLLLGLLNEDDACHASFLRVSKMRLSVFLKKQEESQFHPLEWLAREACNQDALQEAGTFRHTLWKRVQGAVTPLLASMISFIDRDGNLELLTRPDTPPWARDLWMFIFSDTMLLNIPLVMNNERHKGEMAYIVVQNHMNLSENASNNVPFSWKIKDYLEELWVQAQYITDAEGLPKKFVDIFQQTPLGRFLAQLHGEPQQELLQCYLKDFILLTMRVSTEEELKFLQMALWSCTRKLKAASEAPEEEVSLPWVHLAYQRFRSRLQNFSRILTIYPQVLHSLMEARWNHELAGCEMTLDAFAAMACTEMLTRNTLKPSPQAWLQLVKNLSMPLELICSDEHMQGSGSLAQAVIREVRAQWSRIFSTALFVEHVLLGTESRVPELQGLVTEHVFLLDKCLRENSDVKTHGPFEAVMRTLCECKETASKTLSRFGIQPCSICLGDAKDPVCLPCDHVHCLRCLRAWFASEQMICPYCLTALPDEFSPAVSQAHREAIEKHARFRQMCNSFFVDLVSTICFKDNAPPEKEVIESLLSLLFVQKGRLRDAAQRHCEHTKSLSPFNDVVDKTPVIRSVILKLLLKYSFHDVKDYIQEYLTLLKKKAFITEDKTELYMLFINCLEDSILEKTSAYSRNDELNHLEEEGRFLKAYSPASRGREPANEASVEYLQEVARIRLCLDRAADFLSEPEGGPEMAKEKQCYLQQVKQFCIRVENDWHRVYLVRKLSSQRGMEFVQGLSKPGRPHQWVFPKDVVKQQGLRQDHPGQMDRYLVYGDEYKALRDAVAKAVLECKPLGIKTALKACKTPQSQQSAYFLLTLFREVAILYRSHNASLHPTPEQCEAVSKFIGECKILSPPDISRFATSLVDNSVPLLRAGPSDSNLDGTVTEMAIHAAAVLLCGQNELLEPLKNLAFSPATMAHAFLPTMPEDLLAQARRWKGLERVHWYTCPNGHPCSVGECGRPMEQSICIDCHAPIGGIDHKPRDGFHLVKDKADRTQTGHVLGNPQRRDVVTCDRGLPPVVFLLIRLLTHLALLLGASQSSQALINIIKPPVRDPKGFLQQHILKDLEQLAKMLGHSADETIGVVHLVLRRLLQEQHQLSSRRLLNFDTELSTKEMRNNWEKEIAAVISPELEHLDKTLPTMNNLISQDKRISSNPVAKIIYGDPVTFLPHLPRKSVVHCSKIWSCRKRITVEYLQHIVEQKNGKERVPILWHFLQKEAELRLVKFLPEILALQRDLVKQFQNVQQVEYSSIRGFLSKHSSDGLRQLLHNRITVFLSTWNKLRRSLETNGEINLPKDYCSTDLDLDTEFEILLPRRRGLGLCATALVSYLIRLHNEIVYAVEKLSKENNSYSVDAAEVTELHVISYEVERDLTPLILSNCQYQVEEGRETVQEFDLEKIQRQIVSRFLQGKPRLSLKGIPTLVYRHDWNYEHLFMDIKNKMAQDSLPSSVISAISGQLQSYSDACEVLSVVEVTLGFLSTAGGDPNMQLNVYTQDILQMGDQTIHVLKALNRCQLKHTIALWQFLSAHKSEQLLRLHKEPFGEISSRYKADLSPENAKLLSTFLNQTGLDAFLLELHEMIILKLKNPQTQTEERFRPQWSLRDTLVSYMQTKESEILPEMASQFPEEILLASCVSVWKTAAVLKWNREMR

B1: recombinant His-tagged ABL1 (protein)
chain: SPNYDKWEMERTDITMKHKLGGGQYGEVYEGVWKKYSLTVAVKTLKEDTMEVEEFLKEAAVMKEIKHPNLVQLLGVCTREPPFYIITEFMTYGNLLDYLRECNRQEVNAVVLLYMATQISSAMEYLEKKNFIHRDLAARNCLVGENHLVKVADFGLSRLMTGDTYTAHAGAKFPIKWTAPESLAYNKFSIKSDVWAFGVLLWEIATYGMSPYPGIDLSQVYELLEKDYRMERPEGCPEKVYELMRACWQWNPSDRPSFAEIHQAFETMFQESSISDEVEKELGK
Question: Which “in vitro kinase assay (tyrosine phosphorylation)” value (3×-FLAG-RNF213^Y1275F) does the source give for B1 here?
Answer: The value was “His-ABL1 phosphorylated WT-RNF213, but not RNF213^Y1275F”.

Question: What about the “in vitro kinase assay (tyrosine phosphorylation)” value (3×-FLAG-RNF213) of the same protein?
Answer: The value was “His-ABL1 phosphorylated WT-RNF213, but not RNF213^Y1275F in a time- and ABL1-concentration-dependent manner”.
